Measured values reported in article PMC6479716.

Molecular target: AEDANS labelled N-ter hexahistidine tagged LMV VPg (Lettuce mosaic virus (isolate AF199))
Experiment: fluorescence polarisation; steady state fluorescence anisotropy of AEDANS labelled His6 VPg* (300 nM) on addition of His6 eIF4E; 25 °C, 20 mM HEPES pH 7.5, 0.25 mM NaCl, 1 mM DTT

B1: N-ter hexahistidine tagged lettuce eIF4E (natural protein)
chain: MVEEIMKSEEQKLIDVNKHRGVRSDGEEDEQLEEGEIVGGDADTLSSSSSSRPGTAIAQHPLEHSWTFWFDTPSAKSKQVAWGSSMRPIYTFSSVEEFWSLYNNIHRPSKLAQGADFYCFKNKIEPKWEDPVCANGGKWTMTFTKAKSDTCWLYTLLAMIGEQFDHGDDICGAVVNVRARQEKIALWTKNAANESAQLSIGKQWKEFIDYNDTIGFIFHEDAKTLDRSAKNKYTV
  Kd: 63 nM
